In article doi:10.1101/2021.09.12.459962 (bioRxiv, 2021):

Target: the molecule itself
Test: AUC; sedimentation equilibrium of UDS1-His at 4 µM, 6000 to 9000 rpm, single-species model; monomers to dimer

B1: UDS1-His6 (natural protein, Aspergillus nidulans, UniProt Q5B1I5 1-941, looked up)
chain: MNGFDFRSSQSSYGDPRHFSDASYGVPQPPPTKVLLDGYRDALGPANAEKSLYNSANPTSHPRRSIPPSANDPVAMYLLTETAMGDSVNYEILSVEEVEGLKKELRVLSNRMNAAKRKLALELKLRDAAMSLSRLHHKEEHDVDGSGRNEPNTDKTNEELVHINRKCEELSMDIWYSERKVQEIQKRLLEHTAGVLQLTHKGLKKNSKNGMPHTPESLSSSNTVDDFDDRSLYKASDPLDGPETYETRAPPPDNLAHDNSMQETERKLESMSSRLRDMLLQLDPDSEFSQIPQPSTSGDSFEPSAMIDAHLRYIENGISALGSLPKADMASQSLDPVSEQQLVEMRTQLLSIMENPGLPRAQTLPTAPDPTDSDLAKHLTFLSVGINGLESRVEKLLEQKSILTTQIQQQRELNSKSDAERDAKIADLIEQLAHLRKELELAEREGQQSKEDHDLTLKELEDVRRELLESRETHSSRDLGNSKNEAQQHAEAEIARLQSVIQEIQQEKDEHCEAHRRAEAEIDRLQAVIHQIQQEKDEHREAHERAEAETTRLQTIVEEVQQEKDEQHEAHGRAVAEVTRLQDIIQKIEQEKIERHEADERAEAEIVRLRDTIREIQQEKEEHHEARVRLEGEVARLQGVIGQLQESAESRESAEQQVAQLEETIHQIRHDADIRIKEATDSRAQADAKIAQLEGAMNEVRESLESQLKEATEARNNAEENSTRLQKELTELERDVVRAQTELTMVKAELDGAYGTRAQRAAEAAADPALFHELDELKARNFEMAEELAALKAGKPGSGDVHNRVETLERELRETVDDYEAMTKASIEFEKERERFESMIDSLRDRCEQLETQLNEERISWMGANNSASSMGRDGPYETTSTMVLKNEFKKMMRDTRAENMKILKAEQEERRKLEAILRNLKREQANLSGKSNISRTVTAS
notes: UDS1, product of AN5595 of Aspergillus nidulans, 941 residues; UDS1 cDNA cloned as NheI/NotI in pET21b; Mr 106,857 Da; Dimer by sedimentation equilibrium; also called purified UDS1; bacterially expressed UDS1; source: E. coli BLB21 pRIL, purified (Ni-Sepharose, Superdex gel filtration)
In the case of B1, the “stoichiometry N” value is reported as 2.
